The text below walks through data of the supplement of paper PMC5998384.

The subject of data set [1] is HeLa Kyoto. As to the kind of experiment: solubility change mitosis vs G1/S (difference of NP-40 vs SDS log2 ratios) (log2 ratio difference); higher = more soluble in mitosis.
In data set [2] the test system is HeLa Kyoto. Put plainly: thermal stability score vs G1/S (z-score of summed log2 fold changes over temperatures); higher = more thermally stable than in G1/S.
The subject of data set [3] is HeLa Kyoto. Put plainly: solubility in G1/S (NP-40 vs SDS abundance) (log2 ratio); higher = more soluble. The note with it: cell cycle stage: G1/S.
Where [4] appears, read: cell cycle stage: early G1 (4.5 h after nocodazole release).
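Wherever solubility change mitosis vs G1/S (difference of NP-40 vs SDS log2 ratios) is given: synchronized HeLa Kyoto cells (double thymidine block for G1/S, nocodazole release for mitosis), protein amounts in NP-40 versus SDS lysates quantified by mass spectrometry, three biological replicates.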
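Wherever solubility in G1/S (NP-40 vs SDS abundance) is given: HeLa Kyoto cells arrested at G1/S by double thymidine block, proteins quantified by TMT10plex mass spectrometry in mild NP-40 versus SDS extracts, three biological replicates.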
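Wherever thermal stability score vs G1/S (z-score of summed log2 fold changes over temperatures) is given: synchronized HeLa Kyoto cells, proteins quantified by TMT10plex mass spectrometry, three biological replicates, mitosis taken 0.5 h after nocodazole release, G1/S directly after double thymidine block.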

On to “MGKMAAAVGSVATLATEPGEDAFRKLFRFYRQSRPGTADLEGVIDFSAAHAARGKGPGAQKVIKSQLNVSSVSEQNAYRAGLQPVSKWQAYGLKGYPGFIFIPNPFLPGYQWHWVKQCLKLYSQKPNVCNLDKHMSKEETQDLWEQSKEFLRYKEATKRRPRSLLEKLRWVTVGYHYNWDSKKYSADHYTPFPSDLGFLSEQVAAACGFEDFRAEAGILNYYRLDSTLGIHVDRSELDHSKPLLSFSFGQSAIFLLGGLQRDEAPTAMFMHSGDIMIMSGFSRLLNHAVPRVLPNPEGEGLPHCLEAPLPAVLPRDSMVEPCSMEDWQVCASYLKTARVNMTVRQVLATDQNFPLEPIEDEKRDISTEGFCHLDDQNSEVKRARINPDS [ALKBH1]”, for which the “solubility change mitosis (log2)” value in data set [1] was -0.0399. The thermal stability score in data set [2] (setting [4]) was -0.273; in data set [2] (cell cycle stage: mitosis) it was 0.558. For the same sequence, in data set [3], the “solubility in G1/S (log2)” value came to 0.0175.

As for “MGLSAAAPLWGPPGLLLAIALHPALSVPPRRDYCVLGAGPAGLQMAYFLQRAGRDYAVFERAPRPGSFFTRYPRHRKLISINKRYTGKANAEFNLRHDWNSLLSHDPRLLFRHYSRAYFPDARDMVRYLGDFADTLGLRVQYNTTIAHVTLDKDRQAWNGHYFILTDQKGQVHQCSVLFVATGLSVPNQVDFPGSEYAEGYESVSVDPEDFVGQNVLILGRGNSAFETAENILGVTNFIHMLSRSRVRLSWATHYVGDLRAINNGLLDTYQLKSLDGLLESDLTDLAILKDSKGKFHVTPKFFLEEANTNQSADSITLPQDDNDNFAMRVPYDRVIRCLGWNFDFSIFNKSLRLNSGNAFGKKYPLIRASYESKGSRGLFILGTASHSVDYRKSAGGFIHGFRYTVRAVHRLLEHRHHSVTWPATELPITQLTSSIVRRVNEASGLYQMFGVLADVILLKENSTAFEYLEEFPIQMLAQLETLTGRKAKHGLFVINMEYGRNFSGPDKDVFFDDRSVGHTEDAWQSNFLHPVIYYYRYLPTEQEVRFRPAHWPLPRPTAIHHIVEDFLTDWTAPIGHILPLRRFLENCLDTDLRSFYAESCFLFALTRQKLPPFCQQGYLRMQGLVSTESLWQHRVESRLLRDYAPTGRRLEDSSQQLGDQEPLGSPLAPGPLAQSVDSNKEEL [FOXRED2]”, the “solubility change mitosis (log2)” value in data set [1] was determined as 0.00992. Moreover, the thermal stability score in data set [2] (setting [4]) came out at 0.289; in data set [2] (cell cycle stage: mitosis), 1.28. Moreover, the “solubility in G1/S (log2)” value in data set [3] is -0.0337.

For “MGSENSALKSYTLREPPFTLPSGLAVYPAVLQDGKFASVFVYKRENEDKVNKAAKHLKTLRHPCLLRFLSCTVEADGIHLVTERVQPLEVALETLSSAEVCAGIYDILLALIFLHDRGHLTHNNVCLSSVFVSEDGHWKLGGMETVCKVSQATPEFLRSIQSIRDPASIPPEEMSPEFTTLPECHGHARDAFSFGTLVESLLTILNEQVSADVLSSFQQTLHSTLLNPIPKCRPALCTLLSHDFFRNDFLEVVNFLKSLTLKSEEEKTEFFKFLLDRVSCLSEELIASRLVPLLLNQLVFAEPVAVKSFLPYLLGPKKDHAQGETPCLLSPALFQSRVIPVLLQLFEVHEEHVRMVLLSHIEAYVEHFTQEQLKKVILPQVLLGLRDTSDSIVAITLHSLAVLVSLLGPEVVVGGERTKIFKRTAPSFTKNTDLSLEDSPMCVVCSHHSQISPILENPFSSIFPKCFFSGSTPINSKKHIQRDYYNTLLQTGDPFSQPIKFPINGLSDVKNTSEDSENFPSSSKKSEEWPDWSEPEEPENQTVNIQIWPREPCDDVKSQCTTLDVEESSWDDCEPSSLDTKVNPGGGITATKPVTSGEQKPIPALLSLTEESMPWKSSLPQKISLVQRGDDADQIEPPKVSSQERPLKVPSELGLGEEFTIQVKKKPVKDPEMDWFADMIPEIKPSAAFLILPELRTEMVPKKDDVSPVMQFSSKFAAAEITEGEAEGWEEEGELNWEDNNW [SCYL3]”, the “solubility change mitosis (log2)” value in data set [1] is -0.0596. Further, the thermal stability score in data set [2] (setting [4]) stood at 0.969; in data set [2] (cell cycle stage: mitosis), 0.364. Further, the “solubility in G1/S (log2)” value in data set [3] is -0.0689.

With “MKCEHCTRKECSKKTKTDDQENVSADAPSPAQENGEKGEFHKLADAKIFLSDCLACDSCMTAEEGVQLSQQNAKDFFRVLNLNKKCDTSKHKVLVVSVCPQSLPYFAAKFNLSVTDASRRLCGFLKSLGVHYVFDTTIAADFSILESQKEFVRRYRQHSEEERTLPMLTSACPGWVRYAERVLGRPITAHLCTAKSPQQVMGSLVKDYFARQQNLSPEKIFHVIVAPCYDKKLEALQESLPPALHGSRGADCVLTSGEIAQIMEQGDLSVRDAAVDTLFGDLKEDKVTRHDGASSDGHLAHIFRHAAKELFNEDVEEVTYRALRNKDFQEVTLEKNGEVVLRFAAAYGFRNIQNMILKLKKGKFPFHFVEVLACAGGCLNGRGQAQTPDGHADKALLRQMEGIYADIPVRRPESSAHVQELYQEWLEGINSPKAREVLHTTYQSQERGTHSLDIKW [NARF]”, the “solubility change mitosis (log2)” value in data set [1] was -0.273. Further, the thermal stability score was -0.279 in data set [2] (setting [4]) and -0.0946 in data set [2] (cell cycle stage: mitosis). The “solubility in G1/S (log2)” value in data set [3] amounted to 0.474.

Regarding “MKEGRGSFSVERGPRKERETAQSGMWKGNSPAGSQGAAMEGTGGELGGQGNWGPEDAPGLLARASLIMLPWPLPLASSALTLLFGALTSLFLWYCYRLGSQDMQALGAGSRAGGVRGGPVGCSEAGGPSPGGPGDPGEGPRTEGLVSRRLRAYARRYSWAGMGRVRRAAQGGPGPGRGPGVLGIQRPGLLFLPDLPSAPFVPRDAQRHDVELLESSFPAILRDFGAVSWDFSGTTPPPRGWSPPLAPGCYQLLLYQAGRCQPSNCRRCPGAYRALRGLRSFMSANTFGNAGFSVLLPGARLEGRCGPTNARVRCHLGLKIPPGCELVVGGEPQCWAEGHCLLVDDSFLHTVAHNGSPEDGPRVVFIVDLWHPNVAGAERQALDFVFAPDP [ASPHD1]”, the “solubility change mitosis (log2)” value in data set [1] was -0.229. Moreover, the thermal stability score was found to be 1.03 in data set [2] (setting [4]) and 1.87 in data set [2] (cell cycle stage: mitosis). For the same sequence, the “solubility in G1/S (log2)” value in data set [3] is 0.213.

Regarding “MKHINLSFAACGFLGIYHLGAASALCRHGKKLVKDVKAFAGASAGSLVASVLLTAPEKIEECNQFTYKFAEEIRRQSFGAVTPGYDFMARLRSGMESILPPSAHELAQNRLHVSITNAKTRENHLVSTFSSREDLIKVLLASSFVPIYAGLKLVEYKGQKWVDGGLTNALPILPVGRTVTISPFSGRLDISPQDKGQLDLYVNIAKQDIMLSLANLVRLNQALFPPSKRKMESLYQCGFDDTVKFLLKENWFE [PNPLA4]”, the “solubility change mitosis (log2)” value in data set [1] was -0.145. Further, the thermal stability score in data set [2] (setting [4]) amounted to 0.304; in data set [2] (cell cycle stage: mitosis), 1.11. The “solubility in G1/S (log2)” value in data set [3] is 0.107.
